Assay results reported in paper PMC9992347 (Molecular cell, 2023).
Substitutions are numbered along the chain they refer to. Names may count otherwise.

B1: SPOP^1-374 W22R (natural protein, human, UniProt O43791 1-374, looked up)
chain: MSRVPSPPPPAEMSSGPVAESRCYTQIKVVKFSYMWTINNFSFCREEMGEVIKSSTFSSGANDKLKWCLRVNPKGLDEESKDYLSLYLLLVSCPKSEVRAKFKFSILNAKGEETKAMESQRAYRFVQGKDWGFKKFIRRDFLLDEANGLLPDDKLTLFCEVSVVQDSVNISGQNTMNMVKVPECRLADELGGLWENSRFTDCCLCVAGQEFQAHKAILAARSPVFSAMFEHEMEESKKNRVEINDVEPEVFKEMMCFIYTGKAPNLDKMADDLLAAADKYALERLKVMCEDALCSNLSVENAAEILILADLHSADQLKTQAVDFINYHASDVLETSGWKSMVVSHPHLVAEAYRSLASAQCPFLGPPRKRLKQS
B2: SPOP^1-374 E47K (natural protein, human, UniProt O43791 1-374, looked up)
chain: B1 chain with R22W, E47K
B3: SPOP^1-374 W131G (natural protein, human, UniProt O43791 1-374, looked up)
chain: B1 chain with R22W, W131G

Columns and labels:
cryo-EM structure = biological target: the molecule itself; assay: cryo-EM structure
[1] = biological target: the molecule itself; assay: small-angle X-ray scattering

Protein	binding result (cryo-EM structure)	binding result [1]
B1	binds	
B2	binds	
B3		binds
